{
  "source": "patent US6051217",
  "about": "“Therapeutic uses of interleukin-3 (IL-3) multiple mutation polypeptides” (G. D. Searle & Co., dated 2000)",
  "binders": {"B1": {"name": "native human interleukin-3, (1-133)hIL-3 (ligand)", "chain": "MAPMTQTTSLKTSWVNCSNMIDEIITHLKQPPLPLLDFNNLNGEDQDILMENNLRRPNLEAFNRAVKSLQNASAIESILKNLLPCLPLATAAPTRHPIHIKDGDWNEFRRKLTFYLKTLENAQAQQTTLSLAIF"}},
  "key": {"hIL-3 receptor [1]": {"molecular_target": "T1, hIL-3 receptor (human, UniProt P26951)", "T1 sequence": "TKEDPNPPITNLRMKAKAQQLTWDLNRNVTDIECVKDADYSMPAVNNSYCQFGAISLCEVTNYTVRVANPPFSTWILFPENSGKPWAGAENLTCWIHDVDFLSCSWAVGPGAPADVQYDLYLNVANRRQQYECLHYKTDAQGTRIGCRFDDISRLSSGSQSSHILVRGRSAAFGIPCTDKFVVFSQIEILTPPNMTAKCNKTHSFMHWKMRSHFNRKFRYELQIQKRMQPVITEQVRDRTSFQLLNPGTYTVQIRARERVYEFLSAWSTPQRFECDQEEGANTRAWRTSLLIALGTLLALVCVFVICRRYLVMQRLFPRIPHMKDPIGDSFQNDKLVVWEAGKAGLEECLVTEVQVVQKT", "assay": "cell-based or functional assay"}, "hIL-3 receptor [2]": {"molecular_target": "T1, hIL-3 receptor", "assay": "cell-based or functional assay", "remark": "listed apart in the source"}},
  "data": [
    {"binder": "B1", "values": [
      {"measurement": "Relative Biological Activity (AML 193 proliferation)", "setting": "hIL-3 receptor [1]", "result": "1 EC50 (1-133)hIL-3 / EC50 mutant"},
      {"measurement": "EC50, AML 193 cell proliferation assay", "setting": "hIL-3 receptor [2]", "result": 30.2, "unit": "pM"}
    ]}
  ]
}
